Measured values taken from article PMC3458824, “Direct Observation of the Uptake of Outer Membrane Proteins by the Periplasmic Chaperone Skp” (PLoS ONE, 2012).
Positions count from the first letter of the chain named. Names may count otherwise.

B1: OmpF (natural protein, Escherichia coli)
chain: AEIYNKDGNKVDLYGKAVGLHYFSKGNGENSYGGNGDMTYARLGFKGETQINSDLTGYGQWEYNFQGNNSEGADAQTGNKTRLAFAGLKYADVGSFDYGRNYGVVYDALGYTDMLPEFGGDTAYSDDFFVGRVGGVATYRNSNFFGLVDGLNFAVQYLGKNERDTARRSNGDGVGGSISYEYEGFGIVGAYGAADRTNLQEAQPLGNGKKAEQWATGLKYDANNIYLAANYGETRNATPITNKFTNTSGFANKTQDVLLVAQYQFDFGLRPSIAYTKSKAKDVEGIGDVDLVNYFEVGATYYFNKNMSTYVDYIINQIDSDNKLGVGSDDTVAVGIVYQF
notes: Outer membrane protein OmpF of Escherichia coli; probably the mature protein as for OmpC (surmise); also called wild-type OmpF; source: E. coli BL21 (DE3), purified (Ni-NTA) in 8 M urea, unfolded
B2: transmembrane domain of OmpA (domain or fragment, Escherichia coli)
chain: APKDNTWYTGAKLGWSQYHDTGFINNNGPTHENQLGAGAFGGYQVNPYVGFEMGYDWLGRMPYKGSVENGAYKAQGVQLTAKLGYPITDDLDIYTRLGGMVWRADTKSNVYGKNHDTGVSPVFAGGVEYAITPEIATRLEYQWTNNIGDAHTIGTRPDNGMLSLGVSYRFGQGEAA
notes: Transmembrane beta-barrel domain of outer membrane protein OmpA of Escherichia coli; PDB 2GE4 is named as the structure of this domain; also called OmpA-TMD; source: E. coli BL21 (DE3), purified (Ni-NTA) in 8 M urea, unfolded
B3: OmpC (natural protein, Escherichia coli, UniProt P06996 22-367, looked up)
chain: AEVYNKDGNKLDLYGKVDGLHYFSDNKDVDGDQTYMRLGFKGETQVTDQLTGYGQWEYQIQGNSAENENNSWTRVAFAGLKFQDVGSFDYGRNYGVVYDVTSWTDVLPEFGGDTYGSDNFMQQRGNGFATYRNTDFFGLVDGLNFAVQYQGKNGNPSGEGFTSGVTNNGRDALRQNGDGVGGSITYDYEGFGIGGAISSSKRTDAQNTAAYIGNGDRAETYTGGLKYDANNIYLAAQYTQTYNATRVGSLGWANKAQNFEAVAQYQFDFGLRPSLAYLQSKGKNLGRGYDDEDILKYVDVGATYYFNKNMSTYVDYKINLLDDNQFTRDAGINTDNIVALGLVYQF
notes: Outer membrane protein OmpC of Escherichia coli; 346 residues as printed; Kept unfolded in 8 M urea and diluted into the Skp solution (final urea 0.38 M in stopped-flow); the printed 346 residues fit the mature protein; also called wild-type OmpC; urea-denatured OmpC; source: E. coli BL21 (DE3), purified (Ni-NTA) in 8 M urea, unfolded
B4: Skp-K55C-Cy3 (natural protein, Escherichia coli, UniProt P0AEU7 21-161, looked up)
chain: ADKIAIVNMGSLFQQVAQKTGVSNTLENEFKGRASELQRMETDLQAKMKKLQSMCAGSDRTKLEKDVMAQRQTFAQKAQAFEQDRARRSNEERGKLVTRIQTAVKSVANSQDIDLVVDANAVAYNSSDVKDITADVLKQVK
modifications: Cy3 (Cy3-maleimide) on the introduced cysteine at 55
notes: Skp of Escherichia coli, each monomer 141 residues as printed; Extent of labeling greater than 90%; one dye on each of the three chains of the trimer; also called Cy3 labeled Skp mutant K55C; Skp-Cy3; source: E. coli BL21 (DE3), purified (Ni-NTA), labeled with Cy3-maleimide
B5: OmpC-D290C-Cy5 (natural protein, Escherichia coli, UniProt P06996 22-367, looked up)
chain: B3 chain with D290C
modifications: Cy5 (Cy5-maleimide) on the introduced cysteine at 290
notes: Outer membrane protein OmpC of Escherichia coli; 346 residues as printed; Extent of labeling greater than 90%; also called Cy5 labeled OmpC mutant D290C; source: E. coli BL21 (DE3), purified (Ni-NTA) in 8 M urea, unfolded, labeled with Cy5-maleimide
B6: OmpC-L139C-Cy5 (natural protein, Escherichia coli, UniProt P06996 22-367, looked up)
chain: B3 chain with L139C
modifications: Cy5 (Cy5-maleimide) on the introduced cysteine at 139
notes: Outer membrane protein OmpC of Escherichia coli; 346 residues as printed; Extent of labeling greater than 90%; also called Cy5 labeled OmpC mutant L139C; source: E. coli BL21 (DE3), purified (Ni-NTA) in 8 M urea, unfolded, labeled with Cy5-maleimide
B7: OmpC-D25C-Cy5 (natural protein, Escherichia coli, UniProt P06996 22-367, looked up)
chain: B3 chain with D25C
modifications: Cy5 (Cy5-maleimide) on the introduced cysteine at 25
notes: Outer membrane protein OmpC of Escherichia coli; 346 residues as printed; Extent of labeling greater than 90%; also called Cy5 labeled OmpC mutant D25C; source: E. coli BL21 (DE3), purified (Ni-NTA) in 8 M urea, unfolded, labeled with Cy5-maleimide
B8: Skp-E82C-Cy3 (natural protein, Escherichia coli, UniProt P0AEU7 21-161, looked up)
chain: B4 chain with C55K, E82C
modifications: Cy3 (Cy3-maleimide) on the introduced cysteine at 82
notes: Skp of Escherichia coli, each monomer 141 residues as printed; Extent of labeling greater than 90%; one dye on each of the three chains of the trimer; also called Cy3 labeled Skp mutant E82C; Skp-Cy3; source: E. coli BL21 (DE3), purified (Ni-NTA), labeled with Cy3-maleimide

Assays:
[1] = target: Skp-D128C (Escherichia coli) (UniProt P0AEU7); test: fluorescence correlation spectroscopy (FCS); Cy3 labeled OmpC in 8 M urea diluted dropwise into 50 mM PBS pH 7.0, 100 mM NaCl, 0.01% Tween 20 with 0.2 µM reduced Skp; molecular weight of the complex from the diffusion time with free Cy3 as reference
[2] = target: Skp-E82C (Escherichia coli) (UniProt P0AEU7); test: as above
[3] = target: Skp-K55C (Escherichia coli) (UniProt P0AEU7); test: as above
Skp-K55C-Cy3 [4] = target: B4; test: stopped-flow fluorescence (Cy3 self-quenching); OMP in 8 M urea mixed 1:20 with Cy3 labeled Skp mutant; both 0.03 µM final; 50 mM PBS pH 7.0, 100 mM NaCl, 0.01% Tween 20, 25°C; traces fitted to two or three exponentials; conditions: both partners purified
Skp-E82C-Cy3 [5] = target: B8; test: as above; conditions: both partners purified
Skp-D128C-Cy3 [6] = target: T1, Skp-D128C-Cy3 (Escherichia coli, UniProt P0AEU7 21-161, D128C, Cy3 (Cy3-maleimide) on the introduced cysteine at 128); test: as above; conditions: both partners purified
T1 construct: Skp of Escherichia coli, each monomer 141 residues as printed; Extent of labeling greater than 90%; one dye on each of the three chains of the trimer; also called Cy3 labeled Skp mutant D128C; Skp-Cy3; source: E. coli BL21 (DE3), purified (Ni-NTA), labeled with Cy3-maleimide
T1 sequence (looked up): B4 chain with C55K, D128C

wild-type Skp = target: T2, wild-type Skp (Escherichia coli, UniProt P0AEU7 21-161); test: cell-based or functional assay
T2 sequence (looked up): B4 chain with C55K

OmpC-L139C-Cy5 = target: B6; test: FRET or BRET; stopped-flow FRET; Cy5 labeled OmpC mutant in 8 M urea mixed 1:20 with Cy3 labeled Skp mutant; both 0.03 µM final; 50 mM PBS pH 7.0, 100 mM NaCl, 0.01% Tween 20, 25°C; Cy5 emission, fitted to three exponentials; conditions: both partners purified
OmpC-D290C-Cy5 = target: B5; test: as above; conditions: both partners purified
Skp-D128C-Cy3 [7] = target: T1, Skp-D128C-Cy3; test: as above; conditions: both partners purified
Skp-K55C-Cy3 [8] = target: B4; test: as above; conditions: both partners purified
Skp-E82C-Cy3 [9] = target: B8; test: as above; conditions: both partners purified

Cy3 labeled OmpC (from UniProt P06996 22-367) (natural protein)
stoichiometry N [1]: 1 OmpC:Skp
stoichiometry N [2]: 1 OmpC:Skp
stoichiometry N [3]: 1 OmpC:Skp

B1
time constant τ1 of the first phase (Skp-K55C-Cy3 [4]): 61.3 ± 4.9 ms
time constant τ1 of the first phase (Skp-E82C-Cy3 [5]): 182 ± 11 ms
time constant τ1 of the first phase (Skp-D128C-Cy3 [6]): 270 ± 16 ms

B2
time constant τ1 of the first phase (Skp-K55C-Cy3 [4]): 38.6 ± 2.7 ms
time constant τ1 of the first phase (Skp-E82C-Cy3 [5]): 61.7 ± 4.2 ms
time constant τ1 of the first phase (Skp-D128C-Cy3 [6]): 105 ± 7.3 ms

B3
aggregation of urea-denatured OmpC (1.5 µM) by light scatter at 380 nm, 25°C, with 0, 1.5, 4.5 and 7.5 µM wild-type Skp (wild-type Skp): 5 fold molar excess
time constant τ1 of the first phase (Skp-K55C-Cy3 [4]): 82.6 ± 5.5 ms
time constant τ1 of the first phase (Skp-E82C-Cy3 [5]): 125 ± 7.8 ms
time constant τ1 of the first phase (Skp-D128C-Cy3 [6]): 188 ± 12 ms

B4
binding result (OmpC-L139C-Cy5): binds
binding result (OmpC-D290C-Cy5): binds

B5
time constant τ1 of the fast phase (Skp-D128C-Cy3 [7]): 285 ± 19 ms

B6
time constant τ1 of the fast phase (Skp-D128C-Cy3 [7]): 208 ± 14 ms

B7
time constant τ1 of the fast phase (Skp-K55C-Cy3 [8]): 73 ± 5.1 ms
time constant τ1 of the fast phase (Skp-E82C-Cy3 [9]): 101 ± 6.9 ms
time constant τ1 of the fast phase (Skp-D128C-Cy3 [7]): 143 ± 10 ms

B8
binding result (OmpC-L139C-Cy5): binds
binding result (OmpC-D290C-Cy5): binds
